Source: patent publication US8637043B2, “Compositions useful as ligands for the formyl peptide receptor like 1 receptor and methods of use thereof” (Chemocentryx, Inc., priority 2001, dated 2014)
“And” between values parts separate entries of the source, which are not always exact repeats. Identical values can stand only once. “Also recorded” adds a separate entry of the source. Marks after values point to notes of the source that are not given here. Ends that are not written are not given here.

T1: human FPRL1 (Homo sapiens, UniProt P25090)
T1 construct: Full length cDNA encoding FPRL1 was cloned, using the polymerase chain reaction (PCR), from genomic DNA isolated from undifferentiated HL-60 cells; expressed in transfected cells; linearized FPRL1/pcDNA3.1, electroporation
T1 sequence (P25090 1-351): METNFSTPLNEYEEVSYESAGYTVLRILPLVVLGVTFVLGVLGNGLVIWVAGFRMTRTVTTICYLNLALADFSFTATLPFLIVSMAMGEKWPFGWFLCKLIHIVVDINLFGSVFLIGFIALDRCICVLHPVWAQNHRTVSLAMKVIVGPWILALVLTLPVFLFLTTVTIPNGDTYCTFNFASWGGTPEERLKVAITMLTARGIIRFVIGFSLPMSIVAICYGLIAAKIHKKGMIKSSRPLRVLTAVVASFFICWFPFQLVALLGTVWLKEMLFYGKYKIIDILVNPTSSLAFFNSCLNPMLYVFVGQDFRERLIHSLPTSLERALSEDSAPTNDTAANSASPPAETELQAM


Columns and labels:
human monocytes = experiment: Migration assay (ChemoTx), human monocytes; type: cell-based; conditions: 90 min, 1-100 nM
Procedure: (§1) Migration assays were performed on monocytes and neutrophils. Human monocytes and neutrophils (prepared as in Exampe 2) were harvested and resuspended in chemotaxis medium (CM). The CM consisted of Hank's buffered salt solution (Gibco, Mass.) containing CaCl2 (1 mM) and MgSO4 (1 mM) with added 0.1% BSA (Sigma, St. Louis, Mo.). The assays were performed in 96-well ChemoTx® microplates (Neuroprobe, Mass.). Leukotactin, MlP-1α and chemokines (CKβ8(1-99), CKβ8(25-99), CKβ8-1(1-116) or CKβ8-1(25-116), prepared as in Example 1) were added to the lower wells (final volume 29 μL), and 20 μL of cell suspension (5×10^6 cells/mL for monocytes; 2.5×10^6 cells/mL for neutrophils) added to the polycarbonate filters (5 μm pore size for monocytes; 3 μm pore size for neutrophils). After incubation for 90 min (37° C., 100% humidity, 5% CO2), cells were removed from the upper surface of the filter by scraping. Cells that migrated into the lower chamber were quantified using the Quant cell proliferation assay kit (Molecular Probes, Oreg.).
The chemotactic activity on human monocytes and neutrophils of chemokines: CKβ8(1-99), CKβ8(25-99), CKβ8(1-116) and CKβ8(25-116); W peptides 1 and 2 and the SHAAGtide sequences SEQ ID NO:1 and SEQ ID NO:2 was determined in migration assays. The above peptides were prepared as in previous examples. The migration assays were performed in 96-well CHEMOTX® microplates (Neuroprobe) using the protocol described in Example 5.

human neutrophils = experiment: Migration assay (ChemoTx), human neutrophils; type: cell-based; conditions: 90 min, 100 nM
Procedure: as §1, with “Leukotactin, MlP-1α and chemokines (CKβ8(1-99), CKβ8(25-99), CKβ8-1(1-116) or CKβ8-1(25-116), prepared as in Example 1) were added to the lower wells (final volume 29 μL), and 20 μL of cell suspension (5×10^6 cells/mL for monocytes; 2.5×10^6 cells/mL for neutrophils) added to the polycarbonate filters (5 μm pore size for monocytes; 3 μm pore size for neutrophils).” left out
The above peptides were prepared as in previous examples.

human FPRL1 = molecular target: T1, human FPRL1; experiment: Migration of FPRL1-L1.2 cells; type: cell-based; conditions: for migration of FPRL1 expressing cells: FPRL1-L1.2 cells, ChemoTx
Procedure: as §1
The ability of CKβ8-1 (25-116) to elicit the migration of the FPRL1 expressing cells was examined. Test conditions were as in Example 5.
The chemotactic activity of chemokines (CKβ8(1-99) and CKβ8(25-99), SHAAGtides (SEQ ID NO:1 and SEQ ID NO:2) and W peptides 1 and 2 (obtained as in Example 6) on FPRL1-L1.2 cells was determined in migration assays. The chemokines were prepared as in Example 1. The SHAAGtide sequences SEQ ID NO:1 and SEQ ID NO:2 were prepared as in Example 8. FPRL1-L1.2 cells were prepared as in Example 6.
The migration assays were performed in 96-well ChemoTx® microplates (Neuroprobe) using the protocol described in Example 5.

mononuclear cells = experiment: Mononuclear cell infiltration into the dermis after intradermal injection; type: in vivo, Rhesus macaques; conditions: for cell infiltration, in words: summary of Table 18
Procedure: Different amounts (8, 20, or 60 μg in 100 μl PBS) of different polypeptides (see Table 18) were injected intradermally in Rhesus macaques under anesthesia. Twenty-four and 48 hours later, 6 mm skin punch biopsies were taken using aseptic technique and then bisected. One portion of the biopsy was embedded in OCT compound, flash frozen in liquid nitrogen and stored at −70° C. The other portion was immersed in formalin and embedded in paraffin wax; subsequently, sections cut on a microtome were stained with hematoxylin and eosin and then microscopically examined for cell infiltration into the dermis (Table 18). As a negative control, monkeys were injected with PBS lacking any polypeptides.
Mononuclear cell infiltration was scored on a scale of 0 to 5:0, very mild perivascular mononuclear inflammatory infiltration throughout the dermis; 1, a mild perivascular mononuclear inflammatory infiltrate seen throughout the dermis; 2, a mild/moderate perivascular mononuclear inflammatory infiltrate seen throughout the dermis; 3, a moderate perivascular mononuclear inflammatory infiltrate seen throughout the dermis; 4, an extensive perivascular mononuclear inflammatory infiltrate seen throughout the dermis; 5, a florid perivascular mononuclear inflammatory infiltrate seen throughout the dermis. intermediate scores are indicates, e.g., “⅔” represents a score between 2 and 3.

[1] = 60 μg intradermally, 24 hours, scale 0 (very mild) to 5 (florid)

Molecule | migration of monocytes (human monocytes) | migration of neutrophils (human neutrophils) | migration of FPRL1 expressing cells (human FPRL1) | Mononuclear cell infiltration score (mononuclear cells; 8 μg, 24 hours) | Mononuclear cell infiltration score (mononuclear cells; 8 μg, 48 hours) | Mononuclear cell infiltration score (mononuclear cells; 20 μg, 24 hours) | Mononuclear cell infiltration score (mononuclear cells; 20 μg, 48 hours) | Mononuclear cell infiltration score (mononuclear cells; [1]) | Mononuclear cell infiltration score (mononuclear cells; 60 μg, 48 hours) | cell infiltration, in words (mononuclear cells) | migration of neutrophils (human neutrophils; listed as CKβ8-1 (25-116)) | migration of FPRL1 expressing cells (human FPRL1; listed as CKβ8-1 (25-116)) | EC50 (human FPRL1; FPRL1 expressing L1.2 cells, read-out: half-maximal cell migration) [nM]
MLWRRKIGPQMTLSHAAG [SEQ ID NO: 1] | produced migration | produced migration | migrated the transfectants | – | – | – | – | – | – | – | – | – | –
MLWRRKIGPQMTLSHAAY [SEQ ID NO: 6] | – | – | – | 0 | 0 | 2* | 0 | 0 | 0 | moderately strong infiltration in one of the two animals | – | – | –
CKβ8-1(25-116): novel NH2-terminal truncated form of CKβ8-1, SEQ ID NO: 16, human recombinant chemokine (protein, listed as Homo sapiens) MLWRRKIGPQMTLSHAAGFHATSADCCISYTPRSIPCSLLESYFETNSECSKPGVIFLTKKGRRFCANPSDKQVQVCMRMLKLDTRIKTRKN | dramatically higher activity than the other three variants at 100 nM and 1 and 10 nM was very similar to the other variants and produced migration | produced migration | migrated the transfectants | – | – | 0 | 0 | 0 | 0 | no infiltration | robust response | migrated in a bell-shaped dose-dependent manner; also recorded: higher than observed with the synthetic peptides WKYMVm and WKYMVM | 30
CKβ8-1(1-116): alternatively spliced form of CKβ8, 116 amino acids, human recombinant chemokine (protein, listed as Homo sapiens) RVTKDAETEFMMSKLPLENPVLLDMLWRRKIGPQMTLSHAAGFHATSADCCISYTPRSIPCSLLESYFETNSECSKPGVIFLTKKGRRFCANPSDKQVQVCMRMLKLDTRIKTRKN | moderate activity | – | – | – | – | – | – | – | – | – | – | – | –
CKβ8(25-99): known truncated CKβ8 variant, human recombinant chemokine from R&D Systems (protein, listed as Homo sapiens) RFHATSADCCISYTPRSIPCSLLESYFETNSECSKPGVIFLTKKGRRFCANPSDKQVQVCMRMLKLDTRIKTRKN | moderate activity | – | – | – | – | – | – | – | – | – | – | – | –
